What all share (settings): both partners purified
The target in experiment [1] is T1, His-tagged MDM2 (recombinant, bacteria-expressed) (UniProt Q00987 1-491).
T1 construct: MDM2, E3 ubiquitin-protein ligase; His-tagged construct purchased from Genscript; also called His-MDM2; MDM2 recombinant protein; source: E. coli BL-21(DE3), purified (Ni-NTA-agarose)
Put plainly: MST; fluorescence-labeled MDM2 (target, 5 nM, RED-NHS) constant, non-labeled ligand titrated to 500 nM; 50 mM Tris-HCl pH 8.0, 50 mM NaCl, 80 mM KCl, 0.05% Tween-20; Monolith NT.115 Pico.

Experiment [2] deals with T1, His-tagged MDM2 (recombinant, …). Description: MST; fluorescence-labeled αBC or HSP27 (target, 5 nM, RED-NHS) constant, non-labeled His-/FLAG-MDM2 or His-/FLAG-p53 titrated to 500 nM; 50 mM Tris-HCl pH 8.0, 50 mM NaCl, 80 mM KCl, 0.05% Tween-20.
The target of experiment [3] is T2, FLAG-tagged MDM2 (mammalian-expressed, PIPn-linked) (UniProt Q00987 1-491, PIP2 stably associated (PIPn-linked), site not told).
T2 construct: MDM2; cDNA purchased from OriGene; Its chemistry and site are unknown; also called FLAG-MDM2; PIPn-linked MDM2; source: HEK293FT, purified (FLAG Purification Kit), dialysed into PBS
T2 sequence (Q00987 whole entry): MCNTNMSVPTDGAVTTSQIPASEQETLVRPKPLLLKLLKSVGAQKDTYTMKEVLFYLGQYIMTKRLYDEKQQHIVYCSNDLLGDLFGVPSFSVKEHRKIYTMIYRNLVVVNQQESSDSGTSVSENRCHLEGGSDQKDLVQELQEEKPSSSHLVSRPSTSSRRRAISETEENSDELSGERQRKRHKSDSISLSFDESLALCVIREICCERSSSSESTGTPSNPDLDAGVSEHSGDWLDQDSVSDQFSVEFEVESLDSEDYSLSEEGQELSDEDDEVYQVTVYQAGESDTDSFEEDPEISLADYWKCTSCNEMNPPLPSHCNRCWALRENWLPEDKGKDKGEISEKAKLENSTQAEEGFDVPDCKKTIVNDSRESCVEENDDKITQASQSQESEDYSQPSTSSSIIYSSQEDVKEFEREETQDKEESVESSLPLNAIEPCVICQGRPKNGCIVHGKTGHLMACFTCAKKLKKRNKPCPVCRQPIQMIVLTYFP
The description is as above.

T1 sequence (Q00987 whole entry): as above

B1: αB-crystallin (recombinant, His-tagged) (natural protein, UniProt P02511 1-175, looked up)
chain: MDIAIHHPWIRRPFFPFHSPSRLFDQFFGEHLLESDLFPTSTSLSPFYLRPPSFLRAPSWFDTGLSEMRLEKDRFSVNLDVKHFSPEELKVKVLGDVIEVHGKHEERQDEHGFISREFHRKYRIPADVDPLTITSSLSSDGVLTVNGPRKQVSGPERTIPITREEKPAVTAAPKK
notes: αB-crystallin; His-tagged construct purchased from Genscript; source: E. coli BL-21(DE3), purified (Ni-NTA-agarose)
B1: the Kd in experiment [1] was 58 ± 5 nM; in experiment [2], 58 ± 5 nM; in experiment [3], 7 ± 1 nM.

The term Kd denotes the concentration at which binding is half-saturated.
